Sequences and labels used below:
B1: TPR t1 (parent)
chain: GACCAAUCUGCCCUCAGAGCUCGAGAACAUCUUCGGAUGCAGAGGAGGCAGGCUUCGGUGGCGCGAUAGCGCCAACGUCCUCAACCUCCAAUGCAUCCCACCACAUGAUGAUGCCUGAAGAGCCUUGGUUUUUUG

Variants of B1 are the subject of the data set. Kind of data set: polymerase ribozyme fitness, log enrichment relative to wild type (log ratio); higher = more active; in vitro selection for triplet polymerase activity. The procedure, abridged:
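Libraries of mutants in each subunit of a heterodimeric triplet polymerase ribozyme were generated by PCR and transcribed. In triplicate, each went through one in vitro selection round: annealing with biotinylated primer, partner subunit and triplets; frozen incubation at −7 °C; gel excision of extended constructs; streptavidin-bead capture; RT-PCR. Fitness, taken from Illumina sequencing of input and output libraries, is the logarithm of a genotype's enrichment over wild-type enrichment, averaged across replicates with inverse-variance weights. The logarithm is base 2, and genotypes needed ≥10 input reads and ≥1 read per output to be kept.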
For the variant G69C A91C G113U, the “polymerase ribozyme fitness (log ratio)” value was -4.43.
Next, C70A U87A: -1.22; C70A C99U U109A: -6.83.
For G69C C99U G120U the value was -5.41.
Next, G69U C114U U130G: -1.33.
For A68G G113C, the “polymerase ribozyme fitness (log ratio)” value was -4.28.
Regarding G69A U130G, the “polymerase ribozyme fitness (log ratio)” value is -2.69.
Next, G69A U130C: -3.09.
For the variant G69A U130A, the “polymerase ribozyme fitness (log ratio)” value is -3.11.
For G69U G71A A84C the value was -4.28; for A68G C102A, -6.51.
As to C70G A100U C115A G120U, the “polymerase ribozyme fitness (log ratio)” value was -2.99.
For C70A C89A C104U A111U G113A G127C the value was -6.35.
Next, G69U C94U G120A: 1.2; C70G C82G C124A U131G: -3.38.
For G69A C79U C80U the value was -6.55; for G69A G113A, -2.7.
As to G69A G113U, the “polymerase ribozyme fitness (log ratio)” value is -5.37.
Next, G69A G113C: -3.4.
Regarding G69U C99A A111C, the “polymerase ribozyme fitness (log ratio)” value was -2.81.
For G69A C86U the value was -3.19.
Consider C70G C82U, for which the “polymerase ribozyme fitness (log ratio)” value was -3.14.
With C70G C82A, the “polymerase ribozyme fitness (log ratio)” value was -2.48.
For the variant G69U G93C, the “polymerase ribozyme fitness (log ratio)” value was -0.253.
With G69C C104U, the “polymerase ribozyme fitness (log ratio)” value is -1.49.
Turning to G69C C104A, the “polymerase ribozyme fitness (log ratio)” value was -1.87.
G69U C85G: the “polymerase ribozyme fitness (log ratio)” value is -0.537.
For G69U U116C, the “polymerase ribozyme fitness (log ratio)” value stood at 0.102.
G69U U116G: the “polymerase ribozyme fitness (log ratio)” value is -2.69.
As for G69C G110A, the “polymerase ribozyme fitness (log ratio)” value is -2.04.
Next, G69U U78C: 0.191; G69A C80U: -2.58.
With G69A C79A A111G, the “polymerase ribozyme fitness (log ratio)” value is -5.28.
For G69U C86U C101U C102U G120C, the “polymerase ribozyme fitness (log ratio)” value amounted to 0.552.
For G69C C70U C80U U112G G117U A118U the value was -7.19; for C70A C124G U125A, 0.0006.
On to G69U C85A C101A, for which the “polymerase ribozyme fitness (log ratio)” value is -1.66.
For C70A A75G the value was -2.89.
Next, G69U G107C: -4.24; G69C G93C: -3.05; G69C G93U: -2.49.
Next, C70A G135U: -1.99; G69U A83U A95U U106A: 0.29.
G69U G71U G120U U126A: the “polymerase ribozyme fitness (log ratio)” value is -0.887.
As for G69U G128C, the “polymerase ribozyme fitness (log ratio)” value is -1.01.
For G69C G71U the value was -4.82.
For A68G C85A the value was -4.94; for G69U C86A C104U, 0.251.
G69C U78G C115U U125A: the “polymerase ribozyme fitness (log ratio)” value was -5.54.
Next, G69A U78C: -2.5; G69A U78A: -2.94.
For G69A U78G the value was -2.63; for G69U U106C A121U, 2.34; for C70G A95U C114A, -6.28.
As to G69C C101G G122A U125A, the “polymerase ribozyme fitness (log ratio)” value was -3.83.
On to C70G C80U, for which the “polymerase ribozyme fitness (log ratio)” value is -2.51.
Regarding G69A C98A A121U, the “polymerase ribozyme fitness (log ratio)” value was -6.1.
In the case of C70A G120U, the “polymerase ribozyme fitness (log ratio)” value was -1.5.
Turning to U67C G93U, the “polymerase ribozyme fitness (log ratio)” value is -5.03.
Next, A68G C73G U129C: -5.86; C70A C72U U92G G120U: -6.
G69C U96C: the “polymerase ribozyme fitness (log ratio)” value is -2.24.
Next, G69C C82U U126G: -3.1; U67G G69U G113U: -7.04.
As to A68C C115G C124U, the “polymerase ribozyme fitness (log ratio)” value is -6.57.
Take A68G U87G A118U U132A: the “polymerase ribozyme fitness (log ratio)” value is -2.
As to G69U A74U C80U, the “polymerase ribozyme fitness (log ratio)” value is -0.977.
For C70A U81A the value was -2.88; for U67C C114U, -6.64; for G69U C98G, -2.4.
For C70A C72U C101A the value was -2.45; for G69U C88U G120U, 0.599.
Next, G69C C88G: -2.63.
Take A68U C72U C82A G93C C115U G122A: the “polymerase ribozyme fitness (log ratio)” value is -7.25.
Turning to C70A U116A G120C, the “polymerase ribozyme fitness (log ratio)” value is -1.85.
For G69C A119G the value was -0.227; for G69C A119U, -1.32; for G69C G77A C88A G127A U129A, -5.53.
For G69U A119G G122C the value was -2.33; for G69U C88A, 0.231.
For G69A G117U, the “polymerase ribozyme fitness (log ratio)” value is -5.17.
For the variant G69A A83U, the “polymerase ribozyme fitness (log ratio)” value is -3.05.
As to C70A A105G, the “polymerase ribozyme fitness (log ratio)” value was -4.48.
Next, G69U C104A U116A C124U: -0.357; A68G U81A: -4.45.
As to G69C U109A, the “polymerase ribozyme fitness (log ratio)” value was -8.01.
Next, G69C C115G: -3.08; G69A G93A: -3.19; G69A G93U: -4.03.
As to U67G U92G C99G A121G, the “polymerase ribozyme fitness (log ratio)” value is -7.6.
For A68G U96G the value was -3.68; for G69A U109A, -5.09.
For G69A G110U the value was -3.36; for G69U A118C, -2.03; for G69U C98U U112G, -1.16.
Take G69A U129A: the “polymerase ribozyme fitness (log ratio)” value was -3.9.
For the variant G69U G110A, the “polymerase ribozyme fitness (log ratio)” value was 0.0569.
C70A C101G: the “polymerase ribozyme fitness (log ratio)” value was -4.14.
Turning to G69C A84C G128C, the “polymerase ribozyme fitness (log ratio)” value was -4.09.
For C70A C114G the value was -4.93; for C70A C114U, -3.91; for C70G A111U G117U A121U, -6.12.
As for G69C C79G U109G, the “polymerase ribozyme fitness (log ratio)” value was -6.78.
On to G69A G127A, for which the “polymerase ribozyme fitness (log ratio)” value is -4.05.
With A68G G71A, the “polymerase ribozyme fitness (log ratio)” value is -4.15.
Next, G69U U81G A103U: -6.76; G69C C102U: -3.02.
As to A68G C94G G122A, the “polymerase ribozyme fitness (log ratio)” value is -5.12.
On to C70A G77A A90G, for which the “polymerase ribozyme fitness (log ratio)” value was -1.37.
Next, C70A U126C: -2.02; C70A U126G: -3.42; G69A G77C: -4.57.
For G69A G77A the value was -2.61; for G69U U112G, 0.676; for C70A C94U, -1.23.
Next, A68G G110U: -3.66; A68G G110C: -5.66; A68U G69C A121C: -3.61.
On to G69U C115U, for which the “polymerase ribozyme fitness (log ratio)” value is -0.095.
Next, G69C C104A U106C U129A: -5.53; G69U C124U: 2.41; C70G A90C: -4.87.
G69U G120A G128C: the “polymerase ribozyme fitness (log ratio)” value is -1.25.
Take C70A A111U A121U: the “polymerase ribozyme fitness (log ratio)” value was -5.08.
For G69C A105U U112G the value was -3.4; for G69U G110C U125C, -1.52; for A68G C72G A83U C86A C104U U112G U116C A119C, -6.61.
Consider C70G A105G G113U U129G, for which the “polymerase ribozyme fitness (log ratio)” value is -6.51.
For G69C A121G, the “polymerase ribozyme fitness (log ratio)” value turned out to be 0.734.
Next, C70G C82A G113C: -6.03.
On to G69C U133G, for which the “polymerase ribozyme fitness (log ratio)” value was -1.57.
With G69C A84C U125A, the “polymerase ribozyme fitness (log ratio)” value was -2.42.
As for G69U G117U, the “polymerase ribozyme fitness (log ratio)” value is -1.07.
For G69C A91U, the “polymerase ribozyme fitness (log ratio)” value is -3.08.
For the variant A66U G71A, the “polymerase ribozyme fitness (log ratio)” value was -2.53.
Next, C70G A108G: -3.92; C70A C86U: -1.81; A68U G93U C101A G113U G117A: -6.33.
Next, A68G A100C: -4.96; G69C G135C: -1.59; G69C G77A C98U U126C U130C: -3.72.
Next, C70G A121G: -0.69; C70G A121U: -0.929.
Take G69A C104U: the “polymerase ribozyme fitness (log ratio)” value was -2.37.
For the variant G69U G71C, the “polymerase ribozyme fitness (log ratio)” value was -2.52.
For A68U C102A the value was -6.73.
For G69A U112A the value was -2.26; for G69A U112C, -0.685.
Next, A68C A105C U112G: -6.56; G69C C114A: -2.28; C70G: -2.49.
As for C70A, the “polymerase ribozyme fitness (log ratio)” value is -1.51.
Next, G69A U96G A121C: -1.72; G69A G107C U112A: -6.47.
As to G69A A111G, the “polymerase ribozyme fitness (log ratio)” value is -2.61.
Next, G69U C73U: 0.225.
Take G69C U92G: the “polymerase ribozyme fitness (log ratio)” value is -4.02.
For G69C U92C the value was -2.26; for G69U C101U U126C, -0.166.
Next, G69U C97U: 0.163.
G69U C97G: the “polymerase ribozyme fitness (log ratio)” value is -3.33.
Next, G69U G113A: -0.285; G69U G113C: -0.897.
On to A68G A103C, for which the “polymerase ribozyme fitness (log ratio)” value was -5.02.
As for C70A U78C, the “polymerase ribozyme fitness (log ratio)” value is -1.85.
For G69U C104U C115U the value was 1.66; for A68G U87C A111C G135U, -6.03.
